The assay deals with glycoprotein D of HSV-1 KOS/tk12 (wild type HSV-1 KOS carrying a lacZ reporter gene) (herpes simplex virus 1 (HSV-1 KOS)). The assay can be described thus: cell-based or functional assay.

The record followed here is US20100233758A1.

As for recombinant sHveA102 protein (receptor), the percentage of cells infected with the virus (X-gal staining) amounted to 70%.
